Patent publication US12508311B2, “Fusion protein, and preparation method and use thereof” (SUN YAT-SEN UNIVERSITY, priority 2021, dated 2025)

Target: T1, KRas protein in HT29 (KRas wt) cells (Homo sapiens, UniProt P01116)
T1 construct: host or cells: HT29
Test: Co-immunoprecipitation (Co-IP) in HT29 cells
Format: cell-based
Conditions: 20 μg/mL, 24 hours, Lys05 10 μM
Procedure: The co-immunoprecipitation experiment (Co-IP) was an important means to detect the intracellular interaction of the protein. […] The experiment was carried out in the presence of the lysosome inhibitor Lys05 with a final concentration of 10 μM. • (2) The cells were cultured and treated at 37° C. for 24 hours, and then cleaned twice with PBS, and 1 mL of 0.25% pancreatin was added into each culture dish to digest the cells and make the cells fall off from the culture dish wall. Then, 2 mL of complete culture solution was added into each culture dish to stop the digestion , centrifuged at the room temperature and 300 g for 3 minutes, to collect the cells. […] The colorectal cancer cells were lysed on ice, turned upside down for several times every 5 minutes gently without vortex, and centrifuged at 4° C. and 12,000 rpm for 30 minutes after being lysed for 30 minutes. • (4) The supernatant was transferred to a new EP tube, the protein concentration was measured by the BCA method, and then 1 mg of protein was taken from each group for a Co-IP reaction. […] Meanwhile, 30 μL of protein sample was also taken from the Input group, vortically vibrated for 1 minute, boiled in boiled water for 10 minutes, and centrifuged, and the supernatant was collected in a new 1.5 mL EP tube. • (8) The protein concentration was measured by the BCA method. […]

B1: TKD: fusion protein: tumour-cell-penetrating peptide BR2, anti-KRas nanobody VHH and lysosome recognition peptide CTM; SEQ ID NO.4 (protein)
chain: RAGLQFPVGRLLRRLLRDVQLQESGGGLVQAGGSLRLSCVASGRTFSTYPTGWFRQAPGKEREFVARINLSGGITNYADSVKGRFTISRDNAKNTVYLQMNSLKPEDTAVYYCGGGSTTWAGGIPTNFDYWGQGTQVTVSSGRKFERQKILDQRFFE
binding to KRas protein in cells (Co-IP): could pass through the cell membrane and bind to the wild-type and mutant-type KRas proteins in cells without discrimination
